Experimental data as given in patent US20230039401A1, “COMPOSITIONS AND METHODS FOR TREATING NRP2-ASSOCIATED DISEASES” (aTyr Pharma, Inc., priority 2018, published 2023).
“Also recorded” adds a separate entry of the source.

B1: SEMA3C: commercial protein (R&D Systems #5570-S3) (protein)
chain: GSSQPQARVYLTFDELRETKTSEYFSLSHHPLDYRILLMDEDQDRIYVGSKDHILSLNINNISQEALSVFWPASTIKVEECKMAGKDPTHGCGNFVRVIQTFNRTHLYVCGSGAFSPVCTYLNRGRRSEDQVFMIDSKCESGKGRCSFNPNVNTVSVMINEELFSGMYIDFMGTDAAIFRSLTKRNAVRTDQHNSKWLSEPMFVDAHVIPDGTDPNDAKVYFFFKEKLTDNNRSTKQIHSMIARICPNDTGGLRSLVNKWTTFLKARLVCSVTDEDGPETHFDELEDVFLLETDNPRTTLVYGIFTTSSSVFKGSAVCVYHLSDIQTVFNGPFAHKEGPNHQLISYQGRIPYPRPGTCPGGAFTPNMRTTKEFPDDVVTFIRNHPLMYNSIYPIHKRPLIVRIGTDYKYTKIAVDRVNAADGRYHVLFLGTDRGTVQKVVVLPTNNSVSGELILEELEVFKNHAPITTMKISSKKQQLYVSSNEGVSQVSLHRCHIYGTACADCCLARDPYCAWDGHSCSRFYPTGKRRSRRQDVRHGNPLTQCRGFNLKAYRNAAEIVQYGVKNNTTFLECAPKSPQASIKWLLQKDKDRRKEVKLNERIIATSQGLLIRSVQGSDQGLYHCIATENSFKQTIAKINFKVLDSEMVAVVTDKWSPWTWASSVRALPFHPKDIMGAFSHSEMQMINQYCKDTRQQHQQGDESQKMRGDYGKLKALINS
modifications: left off: a dimerising Fc or GST
B2: VEGF-A145: commercial protein (R&D Systems #7626-VE-CF) (protein)
chain: APMAEGGGQNHHEVVKFMDVYQRSYCHPIETLVDIFQEYPDEIEYIFKPSCVPLMRCGGCCNDEGLECVPTEESNITMQIMRIKPHQGQHIGEMSFLQHNKCECRPKKDRARQEKKSVRGKGKGQKRKRKKSRYKSWSVCDKPRR
B3: VEGF-A121: commercial protein (Peprotech #100-20A) (protein)
chain: APMAEGGGQNHHEVVKFMDVYQRSYCHPIETLVDIFQEYPDEIEYIFKPSCVPLMRCGGCCNDEGLECVPTEESNITMQIMRIKPHQGQHIGEMSFLQHNKCECRPKKDRARQEKCDKPRR
B4: mouse SEMA3F: commercial protein (R&D Systems #3237-S3) (protein)
chain: ATPIQDQLPATPRVRLSFKELKATGTAHFFNFLLNTTDYRILLKDEDHDRMYVGSKDYVLSLDLHDINREPLIIHWAASPQRIEECILSGKDGNGECGNFVRLIQPWNRTHLYVCGTGAYNPMCTYVNRGRRAQALPWTQMQVVRGRGSRATDGADRPTPTAPRQDYIFYLEPEKLESGKGKCPYDPKLDTASALINEELYAGVYIDFMGTDAAIFRTLGKQTAMRTDQYNSRWLNDPSFIHAELIPDSAERNDDKLYFFFRERSAEAPQNPAVYARIGRICLNDDGGHCCLVNKWSTFLKARLVCSVPGEDGIETHFDELQDVFVQQTQDVRNPVIYAVFTSSGSVFRGSAVCVYSMADIRMVFNGPFAHKEGPNYQWMPFSGKMPYPRPGTCPGGTFTPSMKSTKDYPDEVINFMRTHPLMYQAVYPLQRRPLVVRTGAPYRLTTVAVDQVDAADGRYEVLFLGTDRGTVQKVIVLPKDDQEVEELMLEEVEVFKEPAPVKTMTISSKRQQLYVASAVGVTHLSLHRCQAYGAACADCCLARDPYCAWDGQACSRYTASSKRRSRRQDVRHGNPIRQCRGFNSNANKNAVESVQYGVAGSAAFLECQPRSPQATVKWLFQRDPSDRRREIRAEDRFLRTEQGLLLRALQLGDRGLYSCTATENNFKHIVTRVQLHVLGRDAVHAALFPPLAVSVPPPPGTGPPTPPYQELAQLLAQPEVGLIHQYCQGYWRHVPPRPREAPGALRPPELQDQKKPRNRRHHPPDT
modifications: left off: a dimerising Fc or GST
B5: VEGF-C: commercial NRP2 ligand protein (R&D Systems) (protein)
chain: TEETIKFAAAHYNTEILKSIDNEWRKTQCMPREVCIDVGKEFGVATNTFFKPPCVSVYRCGGCCNSEGLQCMNTSTSYLSKTLFEITVPLSQGPKPVTISFANHTSCRCMSKLDVYRQVHSIIRR
B6: PlGf-2/Heparin (protein)
chain: LPAVPPQQWALSAGNGSSEVEVVPFQEVWGRSYCRALERLVDVVSEYPSEVEHMFSPSCVSLLRCTGCCGDENLHCVPVETANVTMQLLKIRSGDRPSYVELTFSQHVRCECRPLREKMKPERRRPKGRGKRRREKQRPTDCHLCGDAVPRR

Biological target: T1, NRP2 (Homo sapiens, UniProt O60462)
T1 construct: Fc (C); purchased R&D Systems 2215-N2
Experiment: SPR binding of known ligands to NRP2
Settings: applicant's system
Experimental: (§1) Protein-Protein Interaction studies. […] SPR experiments were conducted on a Bio-Rad ProteOn XPR36 Protein Interaction Array instrument. Proteins were immobilized on different channels of ProteOn GLC sensor chips through amine coupling. Analyte proteins were flowed over the immobilized proteins. The sensor chip surface was regenerated between each analyte run to remove interacting proteins. Data was double referenced against an interspot (untreated chip surface) and a blank surface (activated and deactivated for amine coupling).
(§2) A subset of the known ligands of NRP2 appears to compete binding of Fc-HRS(2-60) to NRP2.

binding of ligand to NRP2	Molecule
do bind	B1
does not bind NRP2 in our system	B2
does not bind	B3
do bind	B4

Same assay, conditions: known NRP2 ligands

Binding to NRP2 observed by SPR	Molecule
Yes	B1
No	B2
No	B3
Yes	B5
Yes	B4

Biological target: T2, NRP2:Fc-HRS(2-60) interaction (Homo sapiens, UniProt O60462)
T2 construct: Fc (C); purchased R&D Systems 2215-N2
Experiment: SPR competition of known NRP2 ligands with the NRP2:Fc-HRS(2-60) interaction
Type: binding
Settings: NRP2 in the presence of the ligand over immobilized Fc-HRS(2-60)
Experimental: as §1
Studies were performed to confirm the binding specificity of Neuropilin 2 (NRP2) to Fc-HRS(2-60) using orthologous methods to those used in the large scale Retrogenix screening (Example 1). In a series of experiments, Fc-HRS(2-60) and related proteins were immobilized on SPR chips, and NRP2 and related proteins were flowed as analytes. Upon confirmation of the NRP2:Fc-HRS(2-60) interaction, the dependence on divalent cations was tested as NRP2 is known to have Ca^2+ binding sites. The effects of previously characterized NRP2 ligands on the NRP2: Fc-HRS(2-60) interaction was also tested to determine if these known ligands have competitive effects on the Fc-HRS(2-60) interaction.
as §2

effect of ligand on binding of NRP2 to Fc-HRS(2-60) (SPR)	Molecule
do not affect	B1
unaffected	B2
unaffected	B3
reduced or ablated	B5
do not affect	B4

Same assay, conditions: SPR, NRP2 binding to immobilized Fc-HRS(2-60) in presence of ligand

Competes with Fc-HRS(2-60) for NRP2 binding	Molecule
No	B1
No	B2
No	B3
Yes	B5
Yes	B6
No	B4

Biological target: T3, cell-expressed NRP2 (NRP2a-GFP fusion protein on HEK293T cells) (Homo sapiens, UniProt O60462)
T3 construct: host or cells: HEK293T
Experiment: Immunofluorescence binding of Fc-HRS (2-60) to HEK293T cells overexpressing NRP2v2-GFP
Settings: 175 nM Fc-HRS (2-60)/anti-Fc-PE; pre-incubation with the test agent
Experimental: Reagents: • PE anti-human IgG Fc Antibody, clone HP6017, Biolegend cat 409304 • Mouse Anti-HRS monoclonal antibody (1-96) Clone 1C8, Abnova cat H00003035-M01 • Mouse IgG2a, Isotype control antibody (MOPC-173), Biolegend cat 400223 • Recombinant Human VEGF-C Protein, R&D Systems, cat 2179-VC-025/CF • Formaldehyde, 16%, methanol free, Ultra Pure, Polysciences, cat 18814-10 • Hoechst 33342, Trihydrochloride, Trihydrate, ThermoFisher Scientific, cat H1399 • Fc-HRS (2-60) was prepared as described in PCT application PCT/US2014/029699 • Gibco DMEM, High Glucose, ThermoFisher Scientific, cat 11965092 • PolyJet™ In Vitro DNA Transfection Reagent, SignaGen, cat SL100688 • Neuropilin 2 (NRP2) (NM_003872) Human ORF Clone, Origene, cat RG220706 • Collagen Coating Solution, Cell Applications Cat 125-100 • 1×PBS containing 1% BSA, 0.9 mM CaCl2 and 20 mM glucose • Binding buffer containing 1% normal mouse IgG (sigma cat 18765) and 2.5% (Human Fc Receptor Binding Inhibitor, ebioscience 14-9161-73).
Cell culture and transfection. […]
Immunofluorescence assays on cultured cells. Binding and quantitation of Fc-HRS (2-60) to cell-expressed NRP2 was achieved using immunofluorescence microscopy. […] The Hoechst stain was replaced with 1×PBS and subsequently read on an IN Cell Analyzer 2200. 20× images were acquired and analyzed using In Cell Analyzer 1000 Workstation software. […]

Molecule	inhibition of Fc-HRS (2-60) binding to cells expressing NRP2a-GFP
B5	binding inhibition; also recorded: direct competition
